# Experimental data: the supplement of paper PMC9112550, “Optimization of the antimicrobial peptide Bac7 by deep mutational scanning” (BMC Biology, 2022)
# System: Escherichia coli TOP10
# Test: shrunken log2 fold change of peptide-encoding DNA abundance (4.5 h post-induction vs induction); higher = less antimicrobial activity (less host growth inhibition)
# Details: time post-induction: 4.5 h; library: site-saturation at positions 5, 18, 19, 20
# 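Note: peptides expressed intracellularly from a pBAD plasmid library in pooled LB shake-flask culture, induced with 0.3% L-arabinose, DNA abundance read by NGS, three biological replicates, DESeq2 with apeglm shrinkage.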
sequence,measurement,value
RRIRIRPPRLPRPRPRPRTPPRP,shrunken log2 fold change,0.089
RRIRIRPPRLPRPRPRPNRLPRP,shrunken log2 fold change,-0.286
RRIRDRPPRLPRPRPRPCVDPRP,shrunken log2 fold change,0.0635
RRIRERPPRLPRPRPRPITMPRP,shrunken log2 fold change,-0.408
RRIRSRPPRLPRPRPRPYEIPRP,shrunken log2 fold change,-0.0474
RRIRERPPRLPRPRPRPQDHPRP,shrunken log2 fold change,-0.0577
RRIRTRPPRLPRPRPRPYPHPRP,shrunken log2 fold change,0.0321
RRIRTRPPRLPRPRPRPQGAPRP,shrunken log2 fold change,-0.0215
RRIRGRPPRLPRPRPRPGRNPRP,shrunken log2 fold change,0.307
RRIRWRPPRLPRPRPRPKNVPRP,shrunken log2 fold change,-0.0641
RRIRFRPPRLPRPRPRPNDMPRP,shrunken log2 fold change,-0.388
RRIRHRPPRLPRPRPRPHGRPRP,shrunken log2 fold change,-0.219
RRIRGRPPRLPRPRPRPEDCPRP,shrunken log2 fold change,0.874
RRIRDRPPRLPRPRPRPPATPRP,shrunken log2 fold change,0.75
RRIRNRPPRLPRPRPRPGHIPRP,shrunken log2 fold change,-0.433
RRIRKRPPRLPRPRPRPKIRPRP,shrunken log2 fold change,0.246
RRIRKRPPRLPRPRPRPVTHPRP,shrunken log2 fold change,0.0561
RRIRDRPPRLPRPRPRPTRAPRP,shrunken log2 fold change,0.889
RRIRVRPPRLPRPRPRPKCDPRP,shrunken log2 fold change,0.0741
RRIRKRPPRLPRPRPRPGGGPRP,shrunken log2 fold change,0.976
RRIRMRPPRLPRPRPRPSKDPRP,shrunken log2 fold change,0.37
RRIRDRPPRLPRPRPRPQRMPRP,shrunken log2 fold change,-0.0312
RRIRKRPPRLPRPRPRPYPYPRP,shrunken log2 fold change,-0.125
RRIRRRPPRLPRPRPRPSTWPRP,shrunken log2 fold change,0.00308
RRIRVRPPRLPRPRPRPPCHPRP,shrunken log2 fold change,-0.451
RRIRVRPPRLPRPRPRPQCDPRP,shrunken log2 fold change,-0.0528
RRIRSRPPRLPRPRPRPWYYPRP,shrunken log2 fold change,-0.518
RRIRQRPPRLPRPRPRPERTPRP,shrunken log2 fold change,0.124
RRIRSRPPRLPRPRPRPCAAPRP,shrunken log2 fold change,0.312
RRIRKRPPRLPRPRPRPTFFPRP,shrunken log2 fold change,0.368
RRIRDRPPRLPRPRPRPIVKPRP,shrunken log2 fold change,0.0295
RRIRRRPPRLPRPRPRPYTTPRP,shrunken log2 fold change,-0.354
RRIRHRPPRLPRPRPRPNTRPRP,shrunken log2 fold change,-0.28
RRIRQRPPRLPRPRPRPAQFPRP,shrunken log2 fold change,0.237
RRIRTRPPRLPRPRPRPWQRPRP,shrunken log2 fold change,0.157
RRIRIRPPRLPRPRPRPCAEPRP,shrunken log2 fold change,-0.358
RRIRTRPPRLPRPRPRPLGCPRP,shrunken log2 fold change,0.0809
RRIRRRPPRLPRPRPRPNCEPRP,shrunken log2 fold change,0.227
RRIRCRPPRLPRPRPRPYEGPRP,shrunken log2 fold change,-0.103
RRIRHRPPRLPRPRPRPLELPRP,shrunken log2 fold change,-0.0293
RRIRARPPRLPRPRPRPVMCPRP,shrunken log2 fold change,0.0832
RRIRTRPPRLPRPRPRPHHQPRP,shrunken log2 fold change,-0.272
RRIRHRPPRLPRPRPRPTLHPRP,shrunken log2 fold change,0.0488
RRIRPRPPRLPRPRPRPSELPRP,shrunken log2 fold change,0.0666
RRIRMRPPRLPRPRPRPMLSPRP,shrunken log2 fold change,0.0117
RRIRGRPPRLPRPRPRPQWLPRP,shrunken log2 fold change,0.136
RRIRPRPPRLPRPRPRPTFYPRP,shrunken log2 fold change,-0.235
RRIRARPPRLPRPRPRPNNYPRP,shrunken log2 fold change,-0.356
RRIRLRPPRLPRPRPRPRYSPRP,shrunken log2 fold change,-0.087
RRIRNRPPRLPRPRPRPYGVPRP,shrunken log2 fold change,-0.00804
RRIRGRPPRLPRPRPRPYNRPRP,shrunken log2 fold change,0.00858
RRIRPRPPRLPRPRPRPFYLPRP,shrunken log2 fold change,-0.685
RRIRHRPPRLPRPRPRPWSRPRP,shrunken log2 fold change,0.0245
RRIRQRPPRLPRPRPRPFLFPRP,shrunken log2 fold change,-0.288
RRIRARPPRLPRPRPRPPLVPRP,shrunken log2 fold change,0.626
RRIRPRPPRLPRPRPRPDIMPRP,shrunken log2 fold change,-0.0454
RRIRERPPRLPRPRPRPPQPPRP,shrunken log2 fold change,0.307
RRIRWRPPRLPRPRPRPPSQPRP,shrunken log2 fold change,0.452
RRIRGRPPRLPRPRPRPARHPRP,shrunken log2 fold change,0.664
RRIRQRPPRLPRPRPRPQAVPRP,shrunken log2 fold change,0.00748
RRIRCRPPRLPRPRPRPVVLPRP,shrunken log2 fold change,-0.0778
RRIRNRPPRLPRPRPRPRQAPRP,shrunken log2 fold change,0.0453
RRIRDRPPRLPRPRPRPSIEPRP,shrunken log2 fold change,0.089
RRIRMRPPRLPRPRPRPFKCPRP,shrunken log2 fold change,-0.0731
RRIRFRPPRLPRPRPRPKYNPRP,shrunken log2 fold change,-0.978
RRIRLRPPRLPRPRPRPNRTPRP,shrunken log2 fold change,0.0829
RRIRVRPPRLPRPRPRPSQHPRP,shrunken log2 fold change,-0.39
RRIRPRPPRLPRPRPRPICCPRP,shrunken log2 fold change,-0.139
RRIRDRPPRLPRPRPRPEFIPRP,shrunken log2 fold change,0.163
RRIRLRPPRLPRPRPRPHSVPRP,shrunken log2 fold change,-0.0683
RRIRERPPRLPRPRPRPEIRPRP,shrunken log2 fold change,-0.163
RRIRIRPPRLPRPRPRPWEPPRP,shrunken log2 fold change,-0.146
RRIRMRPPRLPRPRPRPPRDPRP,shrunken log2 fold change,1.6
RRIRARPPRLPRPRPRPQIKPRP,shrunken log2 fold change,0.048
RRIRDRPPRLPRPRPRPASGPRP,shrunken log2 fold change,0.15
RRIRQRPPRLPRPRPRPIKGPRP,shrunken log2 fold change,-0.0145
RRIRMRPPRLPRPRPRPCHLPRP,shrunken log2 fold change,-0.0745
RRIRSRPPRLPRPRPRPYTQPRP,shrunken log2 fold change,-0.184
RRIRDRPPRLPRPRPRPGRYPRP,shrunken log2 fold change,-0.134
RRIRHRPPRLPRPRPRPDYRPRP,shrunken log2 fold change,-0.127
RRIRGRPPRLPRPRPRPFWCPRP,shrunken log2 fold change,-0.0505
RRIRQRPPRLPRPRPRPDLGPRP,shrunken log2 fold change,0.0039
RRIRHRPPRLPRPRPRPQLQPRP,shrunken log2 fold change,0.0457
RRIRFRPPRLPRPRPRPAKDPRP,shrunken log2 fold change,0.255
RRIRNRPPRLPRPRPRPSQCPRP,shrunken log2 fold change,-0.13
RRIRTRPPRLPRPRPRPGIKPRP,shrunken log2 fold change,-0.162
RRIRSRPPRLPRPRPRPHIQPRP,shrunken log2 fold change,-0.699
RRIRFRPPRLPRPRPRPHAFPRP,shrunken log2 fold change,-0.411
RRIRVRPPRLPRPRPRPLWAPRP,shrunken log2 fold change,0.081
RRIRFRPPRLPRPRPRPIVDPRP,shrunken log2 fold change,-0.136
RRIRHRPPRLPRPRPRPWNRPRP,shrunken log2 fold change,-0.297
RRIRTRPPRLPRPRPRPRFRPRP,shrunken log2 fold change,0.158
RRIRSRPPRLPRPRPRPAECPRP,shrunken log2 fold change,0.0306
RRIRHRPPRLPRPRPRPADHPRP,shrunken log2 fold change,0.134
RRIRGRPPRLPRPRPRPTSKPRP,shrunken log2 fold change,0.69
RRIRNRPPRLPRPRPRPREWPRP,shrunken log2 fold change,-0.00528
RRIRYRPPRLPRPRPRPHGAPRP,shrunken log2 fold change,-0.0794
RRIRTRPPRLPRPRPRPSCEPRP,shrunken log2 fold change,-0.252
RRIRARPPRLPRPRPRPGEVPRP,shrunken log2 fold change,0.935
RRIRGRPPRLPRPRPRPWYDPRP,shrunken log2 fold change,-0.929
RRIRGRPPRLPRPRPRPIKIPRP,shrunken log2 fold change,0.302
RRIRFRPPRLPRPRPRPAPDPRP,shrunken log2 fold change,0.323
RRIRGRPPRLPRPRPRPRKHPRP,shrunken log2 fold change,0.632
RRIRHRPPRLPRPRPRPHQDPRP,shrunken log2 fold change,-0.249
RRIRHRPPRLPRPRPRPMPPPRP,shrunken log2 fold change,0.00237
RRIRVRPPRLPRPRPRPSEAPRP,shrunken log2 fold change,0.0122
RRIRFRPPRLPRPRPRPPVLPRP,shrunken log2 fold change,0.006
RRIRYRPPRLPRPRPRPQYGPRP,shrunken log2 fold change,-0.161
RRIRLRPPRLPRPRPRPIEEPRP,shrunken log2 fold change,0.0311
RRIRMRPPRLPRPRPRPQEFPRP,shrunken log2 fold change,0.284
RRIRGRPPRLPRPRPRPLFVPRP,shrunken log2 fold change,0.203
RRIRPRPPRLPRPRPRPRMWPRP,shrunken log2 fold change,0.413
RRIRIRPPRLPRPRPRPGFGPRP,shrunken log2 fold change,0.28
RRIRDRPPRLPRPRPRPNMDPRP,shrunken log2 fold change,-0.491
RRIRCRPPRLPRPRPRPDEYPRP,shrunken log2 fold change,-0.231
RRIRTRPPRLPRPRPRPTEFPRP,shrunken log2 fold change,-0.0268
RRIRARPPRLPRPRPRPWDRPRP,shrunken log2 fold change,0.0339
RRIRMRPPRLPRPRPRPNIIPRP,shrunken log2 fold change,0.23
RRIRMRPPRLPRPRPRPKQDPRP,shrunken log2 fold change,1.14
RRIRGRPPRLPRPRPRPNEDPRP,shrunken log2 fold change,0.468
RRIRRRPPRLPRPRPRPMQAPRP,shrunken log2 fold change,1.13
RRIRARPPRLPRPRPRPDHAPRP,shrunken log2 fold change,-0.0131
RRIRLRPPRLPRPRPRPHIFPRP,shrunken log2 fold change,-0.747
RRIRGRPPRLPRPRPRPPREPRP,shrunken log2 fold change,1.3
RRIRGRPPRLPRPRPRPHPCPRP,shrunken log2 fold change,0.922
RRIRWRPPRLPRPRPRPISSPRP,shrunken log2 fold change,-0.0629
RRIRPRPPRLPRPRPRPFIDPRP,shrunken log2 fold change,-0.304
RRIRPRPPRLPRPRPRPQCEPRP,shrunken log2 fold change,-0.0437
RRIRIRPPRLPRPRPRPNAVPRP,shrunken log2 fold change,-0.266
RRIRTRPPRLPRPRPRPNDNPRP,shrunken log2 fold change,-0.739
RRIRRRPPRLPRPRPRPYALPRP,shrunken log2 fold change,-0.5
RRIRHRPPRLPRPRPRPEYNPRP,shrunken log2 fold change,-0.329
RRIRMRPPRLPRPRPRPMVYPRP,shrunken log2 fold change,0.0294
RRIRTRPPRLPRPRPRPMRMPRP,shrunken log2 fold change,0.162
RRIRFRPPRLPRPRPRPHIFPRP,shrunken log2 fold change,-0.021
RRIRQRPPRLPRPRPRPQFQPRP,shrunken log2 fold change,-0.265
RRIRKRPPRLPRPRPRPSTGPRP,shrunken log2 fold change,-0.284
RRIRLRPPRLPRPRPRPSCEPRP,shrunken log2 fold change,-0.0674
RRIRERPPRLPRPRPRPYHRPRP,shrunken log2 fold change,0.00148
RRIRRRPPRLPRPRPRPSVPPRP,shrunken log2 fold change,0.063
RRIRIRPPRLPRPRPRPAQLPRP,shrunken log2 fold change,-0.177
RRIRGRPPRLPRPRPRPCNQPRP,shrunken log2 fold change,-0.174
RRIRWRPPRLPRPRPRPEYTPRP,shrunken log2 fold change,0.166
RRIRNRPPRLPRPRPRPCFCPRP,shrunken log2 fold change,-0.337
RRIRDRPPRLPRPRPRPFSMPRP,shrunken log2 fold change,-0.506
RRIRCRPPRLPRPRPRPPPAPRP,shrunken log2 fold change,1.46
RRIRTRPPRLPRPRPRPPYNPRP,shrunken log2 fold change,-0.252
RRIRNRPPRLPRPRPRPQVPPRP,shrunken log2 fold change,0.0184
RRIRERPPRLPRPRPRPYAKPRP,shrunken log2 fold change,-0.329
RRIRKRPPRLPRPRPRPTFQPRP,shrunken log2 fold change,0.05
